From paper PMC11448073 (Microbiology Spectrum, 2024)

Columns and labels:
[1] = target: T1, SARS-CoV-2 nucleocapsid protein (N) (SARS-CoV-2, strain , UniProt P0DTC9); experiment: ELISA
T1 construct: also called SARS-CoV-2 NPs

[2] = target: fraction 1 capsular antigen (F1) of Yersinia pestis (Yersinia pestis EV strain, UniProt P26948); experiment: BLI; conditions: both partners purified
[3] = target: fraction 1 capsular antigen (F1) of Yersinia pestis (Yersinia pestis EV strain, UniProt P26948); experiment: ELISA; conditions: both partners purified

Row | Binder | binding result [1] | Kd [2] | binding result [3]
1 | human monoclonal antibody F19 (antibody, V domains shown, also called HRP-conjugated F19; source: Expi293F, cotransfected heavy and light chain plasmids, purified (Protein A); copies: 2 + 2) VH: EVQLLESGGGVVQPGGSLRLSCAASGFTFDDYAMHWVRQVPGKGLEWVSLISGDGGSTSYADSVKGRFTISRDNSKNSLYLQMSSLRTEDTALYYCAKDRGRAWIDYWGQGTLVTVSS VL: not shown | no binding | 0.165 nM | 
2 | human monoclonal antibody F23 (antibody, V domains shown, also called HRP-conjugated F23; source: Expi293F, cotransfected heavy and light chain plasmids, purified (Protein A); copies: 2 + 2) VH: EVQLLESGGGVVQPGRSLRLSCAASGFTFSSYAMHWVRQAPGKGLEWVAAILYDGSNKNYADSVKGRFTISRDNSKNTLYLQMNSLRAEDTAVYYCARGTPAMVRGVIGPLFEHWGQGTLVTVSS VL: DIQMTQSPDSLAVALGERATINCKSSQSVLYTSNNKNYLAWYQKKPGQPPKLLIYWASTRESGVPDRFSGSGSGTDFTLTISSLQPEDVAVYYCQQYFILPRTFGQGTKLEIK | no binding |  | 
3 | human anti-F1 monoclonal antibody αF1Ig8 (antibody, V domains shown, source: EXPi293F, synthesized expression plasmids) VH: QVQLQQWGAGLLKPSETLSLTCAVYGGSFSGYYWSWIRQPPGKGLEWIGEINHSGNTNYNPSLKSRVTISVDTSKNQFSLQLNSVTPEDTAVYYCARTRGYFDLWGRGTLVTVSS VL: DIRMTQSPSSLSASVGDRVTITCRASQSISSYLNWYQQKPGKAPKLLIYATSSLQSGVPSRFSGSGSGTDFTLTISSLQFEDFATYYCQQSYSTPSSFGQGTKVDIK |  |  | binds
4 | human monoclonal antibody F3 (antibody, V domains shown, also called F3-HRP; source: Expi293F, cotransfected heavy and light chain plasmids, purified (Protein A); copies: 2 + 2) VH: EVQLLESGGGVVQPGRSLRLSCAASGFTFSRYGMHWVRQAPGKGLEWVAVISHDGNIKYYGDSVKGRFTISRDNSKNTLYLQMNSLRVEDTAVYYCAKDRGKFDSWGQGTLVTVSS VL: not shown | no binding |  | 
